The text below walks through data of PMC2173217 (The Journal of Cell Biology, 2002).

Like-named read-outs stand apart in the source and are kept apart here.

To fix the notation:
B1: Sec23/24p (complex, S. cerevisiae)
chain 1: MDFETNEDINGVRFTWNVFPSTRSDANSNVVPVGCLYTPLKEYDELNVAPYNPVVCSGPHCKSILNPYCVIDPRNSSWSCPICNSRNHLPPQYTNLSQENMPLELQSTTIEYITNKPVTVPPIFFFVVDLTSETENLDSLKESIITSLSLLPPNALIGLITYGNVVQLHDLSSETIDRCNVFRGDREYQLEALTEMLTGQKPTGPGGAASHLPNAMNKVTPFSLNRFFLPLEQVEFKLNQLLENLSPDQWSVPAGHRPLRATGSALNIASLLLQGCYKNIPARIILFASGPGTVAPGLIVNSELKDPLRSHHDIDSDHAQHYKKACKFYNQIAQRVAANGHTVDIFAGCYDQIGMSEMKQLTDSTGGVLLLTDAFSTAIFKQSYLRLFAKDEEGYLKMAFNGNMAVKTSKDLKVQGLIGHASAVKKTDANNISESEIGIGATSTWKMASLSPYHSYAIFFEIANTAANSNPMMSAPGSADRPHLAYTQFITTYQHSSGTNRIRVTTVANQLLPFGTPAIAASFDQEAAAVLMARIAVHKAETDDGADVIRWLDRTLIKLCQKYADYNKDDPQSFRLAPNFSLYPQFTYYLRRSQFLSVFNNSPDETAFYRHIFTREDTTNSLIMIQPTLTSFSMEDDPQPVLLDSISVKPNTILLLDTFFFILIYHGEQIAQWRKAGYQDDPQYADFKALLEEPKLEAAELLVDRFPLPRFIDTEAGGSQARFLLSKLNPSDNYQDMARGGSTIVLTDDVSLQNFMTHLQQVAVSGQA
chain 2: MSHHKKRVYPQAQLQYGQNATPLQQPAQFMPPQDPAAAGMSYGQMGMPPQGAVPSMGQQQFLTPAQEQLHQQIDQATTSMNDMHLHNVPLVDPNAYMQPQVPVQMGTPLQQQQQPMAAPAYGQPSAAMGQNMRPMNQLYPIDLLTELPPPITDLTLPPPPLVIPPERMLVPSELSNASPDYIRSTLNAVPKNSSLLKKSKLPFGLVIRPYQHLYDDIDPPPLNEDGLIVRCRRCRSYMNPFVTFIEQGRRWRCNFCRLANDVPMQMDQSDPNDPKSRYDRNEIKCAVMEYMAPKEYTLRQPPPATYCFLIDVSQSSIKSGLLATTINTLLQNLDSIPNHDERTRISILCVDNAIHYFKIPLDSENNEESADQINMMDIADLEEPFLPRPNSMVVSLKACRQNIETLLTKIPQIFQSNLITNFALGPALKSAYHLIGGVGGKIIVVSGTLPNLGIGKLQRRNESGVVNTSKETAQLLSCQDSFYKNFTIDCSKVQITVDLFLASEDYMDVASLSNLSRFTAGQTHFYPGFSGKNPNDIVKFSTEFAKHISMDFCMETVMRARGSTGLRMSRFYGHFFNRSSDLCAFSTMPRDQSYLFEVNVDESIMADYCYVQVAVLLSLNNSQRRIRIITLAMPTTESLAEVYASADQLAIASFYNSKAVEKALNSSLDDARVLINKSVQDILATYKKEIVVSNTAGGAPLRLCANLRMFPLLMHSLTKHMAFRSGIVPSDHRASALNNLESLPLKYLIKNIYPDVYSLHDMADEAGLPVQTEDGEATGTIVLPQPINATSSLFERYGLYLIDNGNELFLWMGGDAVPALVFDVFGTQDIFDIPIGKQEIPVVENSEFNQRVRNIINQLRNHDDVITYQSLYIVRGASLSEPVNHASAREVATLRLWASSTLVEDKILNNESYREFLQIMKARISK

Assay in all cases: liposome flotation
The target of experiment [1] is T1, MBP–Sec16p (S. cerevisiae, UniProt P48415 1-2195).
T1 sequence (P48415 whole entry): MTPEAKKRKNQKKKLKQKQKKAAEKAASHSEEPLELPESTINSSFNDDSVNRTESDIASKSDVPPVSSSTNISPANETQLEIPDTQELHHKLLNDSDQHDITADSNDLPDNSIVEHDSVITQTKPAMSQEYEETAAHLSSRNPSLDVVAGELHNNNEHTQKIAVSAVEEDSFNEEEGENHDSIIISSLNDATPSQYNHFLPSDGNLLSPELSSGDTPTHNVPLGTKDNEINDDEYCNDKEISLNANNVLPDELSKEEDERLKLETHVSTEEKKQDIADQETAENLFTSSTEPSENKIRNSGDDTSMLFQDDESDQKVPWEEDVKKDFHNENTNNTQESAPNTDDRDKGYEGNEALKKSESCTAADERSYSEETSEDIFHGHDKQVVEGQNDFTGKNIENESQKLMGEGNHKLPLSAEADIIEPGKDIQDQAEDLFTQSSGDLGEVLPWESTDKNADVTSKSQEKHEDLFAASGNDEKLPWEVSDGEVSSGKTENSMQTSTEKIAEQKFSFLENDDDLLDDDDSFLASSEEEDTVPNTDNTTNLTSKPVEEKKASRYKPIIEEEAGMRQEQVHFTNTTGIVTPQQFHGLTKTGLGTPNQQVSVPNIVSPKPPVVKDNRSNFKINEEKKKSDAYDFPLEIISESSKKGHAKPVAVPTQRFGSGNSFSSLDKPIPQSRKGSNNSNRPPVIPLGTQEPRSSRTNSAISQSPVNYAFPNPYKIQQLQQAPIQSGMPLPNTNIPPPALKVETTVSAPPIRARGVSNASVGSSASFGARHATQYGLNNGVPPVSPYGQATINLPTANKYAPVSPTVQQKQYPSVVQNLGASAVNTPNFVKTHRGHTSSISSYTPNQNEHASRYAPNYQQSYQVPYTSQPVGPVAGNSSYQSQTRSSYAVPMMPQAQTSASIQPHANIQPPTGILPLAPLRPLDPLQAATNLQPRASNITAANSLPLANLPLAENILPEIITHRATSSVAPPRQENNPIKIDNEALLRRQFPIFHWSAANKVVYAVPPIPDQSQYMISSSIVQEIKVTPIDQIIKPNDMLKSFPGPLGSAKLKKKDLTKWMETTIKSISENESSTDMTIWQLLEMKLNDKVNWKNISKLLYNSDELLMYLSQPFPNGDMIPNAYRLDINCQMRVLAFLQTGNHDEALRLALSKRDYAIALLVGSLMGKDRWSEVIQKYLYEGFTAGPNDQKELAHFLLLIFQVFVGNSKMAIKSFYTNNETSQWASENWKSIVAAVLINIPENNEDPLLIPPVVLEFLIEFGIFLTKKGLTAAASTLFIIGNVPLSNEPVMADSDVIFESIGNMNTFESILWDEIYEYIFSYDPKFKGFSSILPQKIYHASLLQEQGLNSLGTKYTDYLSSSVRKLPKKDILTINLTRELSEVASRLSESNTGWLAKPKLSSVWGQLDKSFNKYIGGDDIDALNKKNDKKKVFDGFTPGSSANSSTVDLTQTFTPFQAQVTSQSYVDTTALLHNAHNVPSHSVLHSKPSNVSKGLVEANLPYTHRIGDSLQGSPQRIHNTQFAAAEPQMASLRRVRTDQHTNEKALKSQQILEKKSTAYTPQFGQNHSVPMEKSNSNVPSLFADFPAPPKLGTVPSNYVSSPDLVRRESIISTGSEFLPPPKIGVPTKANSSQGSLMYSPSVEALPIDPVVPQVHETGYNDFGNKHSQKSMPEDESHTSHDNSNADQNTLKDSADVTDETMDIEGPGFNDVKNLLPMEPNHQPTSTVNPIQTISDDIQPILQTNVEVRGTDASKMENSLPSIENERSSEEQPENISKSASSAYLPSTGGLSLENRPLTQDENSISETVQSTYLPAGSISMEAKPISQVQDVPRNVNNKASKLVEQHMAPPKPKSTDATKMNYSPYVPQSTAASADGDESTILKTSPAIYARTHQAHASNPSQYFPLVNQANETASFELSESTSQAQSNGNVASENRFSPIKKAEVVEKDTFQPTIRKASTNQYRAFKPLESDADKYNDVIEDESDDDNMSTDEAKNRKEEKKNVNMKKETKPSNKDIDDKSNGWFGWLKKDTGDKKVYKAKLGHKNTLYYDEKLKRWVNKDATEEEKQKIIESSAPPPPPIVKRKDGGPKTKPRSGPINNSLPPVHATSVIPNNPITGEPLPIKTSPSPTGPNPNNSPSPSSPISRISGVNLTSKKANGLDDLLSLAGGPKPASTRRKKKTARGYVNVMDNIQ
For experiment [2], the target named is B1.
Experiment [3] has as its target T1, MBP–Sec16p. The source holds these as a separate data set.

With B1, the binding result in experiment [1] is recorded as “binds”.

B2: Sec13/31p (complex, S. cerevisiae)
chain 1: MVVIANAHNELIHDAVLDYYGKRLATCSSDKTIKIFEVEGETHKLIDTLTGHEGPVWRVDWAHPKFGTILASCSYDGKVLIWKEENGRWSQIAVHAVHSASVNSVQWAPHEYGPLLLVASSDGKVSVVEFKENGTTSPIIIDAHAIGVNSASWAPATIEEDGEHNGTKESRKFVTGGADNLVKIWKYNSDAQTYVLESTLEGHSDWVRDVAWSPTVLLRSYLASVSQDRTCIIWTQDNEQGPWKKTLLKEEKFPDVLWRASWSLSGNVLALSGGDNKVTLWKENLEGKWEPAGEVHQ
chain 2: MVKLAEFSRTATFAWSHDKIPLLVSGTVSGTVDANFSTDSSLELWSLLAADSEKPIASLQVDSKFNDLDWSHNNKIIAGALDNGSLELYSTNEANNAINSMARFSNHSSSVKTVKFNAKQDNVLASGGNNGEIFIWDMNKCTESPSNYTPLTPGQSMSSVDEVISLAWNQSLAHVFASAGSSNFASIWDLKAKKEVIHLSYTSPNSGIKQQLSVVEWHPKNSTRVATATGSDNDPSILIWDLRNANTPLQTLNQGHQKGILSLDWCHQDEHLLLSSGRDNTVLLWNPESAEQLSQFPARGNWCFKTKFAPEAPDLFACASFDNKIEVQTLQNLTNTLDEQETETKQQESETDFWNNVSREESKEKPTVFHLQAPTWYGEPSPAAHWAFGGKLVQITPDGKGVSITNPKISGLESNTTLSEALKTKDFKPLINQRLVKVIDDVNEEDWNLLEKLSMDGTEEFLKEALAFDNDESDAQDDANNEKEDDGEEFFQQIETNFQPEGDFSLSGNIEQTISKNLVSGNIKSAVKNSLENDLLMEAMVIALDSNNERLKESVKNAYFAKYGSKSSLSRILYSISKREVDDLVENLDVSQWKFISKAIQNLYPNDIAQRNEMLIKLGDRLKENGHRQDSLTLYLAAGSLDKVASIWLSEFPDLEDKLKKDNKTIYEAHSECLTEFIERFTVFSNFINGSSTINNEQLIAKFLEFINLTTSTGNFELATEFLNSLPSDNEEVKTEKARVLIASGKSLPAQNPATATTSKAKYTNAKTNKNVPVLPTPGMPSTTSIPSMQAPFYGMTPGASANALPPKPYVPATTTSAPVHTEGKYAPPSQPSMASPFVNKTNSSTRLNSFAPPPNPYATATVPATNVSTTSIPQNTFAPIQPGMPIMGDYNAQSSSIPSQPPINAVSGQTPHLNRKANDGWNDLPLKVKEKPSRAKAVSVAPPNILSTPTPLNGIPANAASTMPPPPLSRAPSSVSMVSPPPLHKNSRVPSLVATSESPRASISNPYAPPQSSQQFPIGTISTANQTSNTAQVASSNPYAPPPQQRVATPLSGGVPPAPLPKASNPYAPTATTQPNGSSYPPTGPYTNNHTMTSPPPVFNKPPTGPPPISMKKRSNKLASIEQNPSQGATYPPTLSSSASPLQPSQPPTLASQVNTSAENVSHEIPADQQPIVDFLKEELARVTPLTPKEYSKQLKDCDKRLKILFYHLEKQDLLTQPTIDCLHDLVALMKEKKYKEAMVIHANIATNHAQEGGNWLTGVKRLIGIAEATLN
Turning to B2, the binding result in experiment [2] is given as “binds”.

B3: Sar1p (enzyme)
chain: not shown
As to B3, the binding result in experiment [3] is given as “binds”.
